Results as given in article PMC12647017, “Discovery and optimization of a synthetic small protein domain targeting antibodies” (Frontiers in Bioengineering and Biotechnology, 2025).

Tests used:
[1] = Solubility / precipitation observed during production, dialysis and purification; format: physicochemical; settings: for solubility compared with native counterpart E6: IMAC purification without chaotropic agents; for precipitation / solubility after dialysis: dialysis against PBS1x pH 7.4, up to 48 h at 16 °C
Experimental: Therefore, after expression the soluble fractions were further centrifuged at 42,000 g for 20 min at 4 °C. As the samples were diluted (∼5 mg/mL in 25 mL lysis buffer), the soluble fractions were lyophilized and resuspended in 4 mL of water. The samples were dialyzed (Membranes Spectra Pre-Treated 1 kDa, Carl Roth) to Binding buffer without imidazole (20 mM Sodium Phosphate, 500 mM Sodium Chloride pH 7.4) for 24 h at 16 °C. The samples were quantified by […] (typically ∼6 mg/mL), this solution was diluted 1:2 in Binding buffer (20 mM Sodium Phosphate, 500 mM Sodium Chloride, 20 mM imidazole pH 7.4) and purified in a gravitational flow with 6 mL of resin (IMAC Sepharose 6 Fast Flow (Ni^2+), Cytiva) packed in a PD-10 column. The column was prepared using the indications of the manufacturer. The binding of the protein to the column was maximized by an incubation for 1 h at room temperature in agitation at 40rpm. The resin was washed 4 x column volumes (CV) with binding buffer. The elution as achieved by incubation for 15min with elution buffers. We used a gradient with 3 x CV elution buffer 1 (binding buffer with 100 mM imidazole) and 3 x CV elution buffer 2 (binding buffer with 200 mM imidazole).
The most enriched elutions in WW domains (60%–70% purity) were combined and dialysed against PBS1x (10 mM Na2HPO4, 1.8 mM KH2PO4, 2.7 mM KCl, 137 mM NaCl pH 7.4) with routine changes of buffer up to 48 h at 16 °C. Following the samples were concentrated with a Amicon-Ultra15 3 kDa MWCO (Millipore) with centrifugation conditions 4,900 g, 30 min, 4 °C. The final samples were quantified by BCA assay.
Size Exclusion Chromatography (SEC). The samples were further purified by SEC to achieve 90% purity in a AKTA system (Cytiva). The column Superdex 75 Increase 10/300 GL (29148721, Cytiva) was washed with water and equilibrated 2CV in PBS1x, as described by the manufacturer. As calibrants we prepare a mixture: 2 mg/mL of Bovine Serum Albumin (66 kDa, BP9702-100, FisherScientific), Ovalbumin (42 kDa, A5503-1G, Sigma), Chicken Lysozyme ([…], 62,971–10G-F, Fluka) and hPin1_WW chemically synthesized (5 kDa, produced in ([Dias et al., 2015])) in PBS 1x, this sample was filtered with 0.2 µm PES (514–0073, VWR) and analysed. The operation conditions: flow 0.5 mL/min, 0.05 CV in PBS1x and injection of 250 µL and run for 2 CV with PBS 1x at 16 °C. The same method was used for the WW domain samples. After purifications samples were quantified for total protein by BCA assay, as described previously and used for characterization.

human IgG = assay: Microscale Thermophoresis (MST) with IgG-FITC; format: binding
Experimental: For MST assays of E6, IgG was conjugated with fluoresceine isothiocyanate (FITC) using standard protocols. The conjugated IgG-FITC was used at a fixed concentration of 50nM and 16 serial dilutions of E6 protein (from 23.5 µM to 0.7 nM) were made in 50 mM MOPS 0.05% (v/v) Tween-20 pH 7.
For MST assays of E6_M2_T2, the target was hIgG-FITC (F9636, Sigma) at a constant concentration of 25 nM. For the E6_M2_T2 ligand, 16 samples were prepared in variable concentrations starting from 695 nM and using a serial dilution of 1:2 up to a minimum concentration of […] using PBS1x-0.05% (v/v) Tween-20 pH7.4.
Samples were transferred to a standard capillary (Monolith NT.115 Capillary, Nanotemper) with the following settings: medium MST-power, excitation power at 20%, with excitation in Nano-Blue, with thermostat at 25 °C. The signal of the samples was read in triplicates using a Monolith NT.115 (Nanotemper) and the signal was processed in the manufacturer software with FitModel: Kd and Hill. The binding parameters (KD and EC50) and were estimated automatically in the MST software.

hIgG = assay: ELISA of soluble fractions of native and mutated WW domains against hIgG; format: binding; settings: human IgG, soluble fraction, ABTS
Experimental: The soluble fraction of 100 mL cultures (100 μL) was used for ELISA against hIgG, as described in ([Dias et al., 2025]). Briefly, the target hIgG was immobilized (1 μg/well) in 0.1 M Sodium Bicarbonate pH 8.6 in Immuno Maxisorp ELISA plates (Thermo Fisher), overnight at 4 °C. In the next day, the unbound hIgG was removed, and the wells washed with PBS1x. To the wells was added the blocking solution – 5% (v/v) Soya Milk in PBS 1x and incubated for 1 h at room temperature. The wells were washed and incubated with 100 µL of soluble fraction (∼0.065 mg/mL total protein) at room temperature for 2 h.
The unbound WW domains were removed, and the wells were washed using 4 times PBS1x-0.05% Tween 20 and 1 time with PBS1x. For detection was used 1:1,000 anti-His-HRP conjugated antibody (MA1-21315-HRP, Invitrogen) in 1% (v/v) Soya Milk in PBS1x and incubated for 1 h at RT, after that the wells were washed with 5x PBS1x. The detection occurred with ABTS (2,2′-azino-bis(3-ethylbenzothiazoline-6-sulfonic acid) ready solution (11684302001, Roche), which was incubated in the dark for 1 h at 37 °C. Finally, the results were analysed in a microplate reader (Tecan) with appropriate filter at Abs405nm.
Figure S6 – Production and signal characterization of mutated versions. A – Tris-Tricine gels after cell lysis of the WW prototype sequence (WWp, band at ~8KDa), mutated WWp5_4 scaffold (WWp5_4_M2, band at ~8 kDa) and mutated E6 (E6_M2, band at ~ 12kDa). Samples were normalized 90µg total protein/lane. M - Precision Plus Protein™ Dual Xtra Prestained, Biorad; SF – soluble fraction; ISF – insoluble fraction. B1, B2, and B3 indicate production batchs in 1L culture, except for WWp B1 – 100 mL, WWp_5_4 B2 – 900 mL. Stained with Simplyblue. […] The detection of the clones was made with anti-His conjugated antibody with HRP and detected with ABTS as substrate.
Figure S7 – Comparison between ELISA signal of E6 versus E6_M2. […] The expression levels were detected by direct coating of the microplate well with the soluble fraction of the extract. […] All were detected with ABTS as substrate.

[2] = target: human polyclonal IgG (human); assay: ELISA; hIgG immobilised (1 ug/well) in 0.1 M sodium bicarbonate pH 8.6 on Maxisorp plates; blocked with 5% soya milk in PBS; 100 uL soluble fraction (~0.065 mg/mL total protein), 2 h at room temperature; detection with anti-His-HRP and ABTS, Abs 405 nm
[3] = target: human IgG conjugated with fluorescein isothiocyanate (IgG-FITC) (human); assay: MST; hIgG-FITC (Sigma F9636) fixed at 25 nM; 16 samples of E6_M2_T2 from 695 nM in 1:2 serial dilution; PBS, 0.05% Tween-20, pH 7.4; 25 C; fit models Kd and Hill
[4] = target: human IgG conjugated with fluorescein isothiocyanate (IgG-FITC) (human); assay: MST; IgG-FITC fixed at 50 nM; 16 serial dilutions of E6 from 23.5 uM to 0.7 nM; 50 mM MOPS, 0.05% Tween-20, pH 7; 25 C; fit models Kd and Hill

Molecule: C S GK LPPGW E E R KTRRFKLG R TYYYNHHILSKTS Q W EH PR G SSS GK LPPGW E E R KTRRFKLG R TYYYNHHILSKTS Q W EH PR G SS [Clone E6_M2_T2]
- aggregation compared with the monomeric version [1]: aggregates less than the monomeric version
- solubility compared with native counterpart E6 [1]: higher solubility than the native counterpart
- precipitation during size exclusion chromatography ([1]; Superdex 75 Increase 10/300 GL, PBS1x, 16 °C): did not observe any precipitation
- stability compared with E6_M2 ([1]; after dialysis and during size exclusion chromatography): more stable
- precipitation / solubility after dialysis [1]: always soluble
- EC50 (human IgG; E6_M2_T2, hIgG-FITC 25 nM, ligand from 695 nM 1:2 dilutions, PBS1x-0.05% (v/v) Tween-20 pH 7.4, 25 °C, n = 3): 157 nM
- Kd (human IgG; E6_M2_T2, hIgG-FITC 25 nM, ligand from 695 nM 1:2 dilutions, PBS1x-0.05% (v/v) Tween-20 pH 7.4, 25 °C, n = 3, read-out: dissociation constant, KD): 62 ± 14 nM
- KD relative to KD of E6 native sequence (human IgG; human IgG): half of the dissociation constant estimated for the E6 native sequence

Molecule: C S GK LPPGW E E R KTRRFKLG R TYYYNHHILSKTS Q W EH PR G SS [Clone E6_M2, E6 with mutated framework and N-terminal Cys]
- solubility compared with native counterpart E6 [1]: higher solubility than the native counterpart
- precipitation / solubility after dialysis [1]: some precipitation
- binding signal relative to negative control (E. coli Rosetta extract) (hIgG; E6 detected with anti-HA-HRP, E6_M2 and Rosetta extract with anti-His-HRP): 2 times
- binding signal relative to scaffold framework (WWp5_4) (hIgG; anti-His-HRP, Abs405nm): 2 times

B1: E6_M2 (designed binder)
chain: CSGKLPPGWEERKTRRFKLGRTYYYNHHILSKTSQWEHPRGSS
- ELISA binding signal relative to the negative control (E. coli Rosetta extract) [2]: 2 fold
- ELISA binding signal relative to the scaffold framework WWp5 4 [2]: 2 fold

B2: E6_M2_T2 (head-to-tail dimer of E6_M2) (designed binder)
chain: CSGKLPPGWEERKTRRFKLGRTYYYNHHILSKTSQWEHPRGSSSGKLPPGWEERKTRRFKLGRTYYYNHHILSKTSQWEHPRGSS
- EC50 [3]: 157 nM
- Kd [3]: 62 nM

B3: E6 (lead ligand, WWp5_4 scaffold), without tag (designed binder)
chain: SMGLPPGWDEYKTRRFKLGKTYYYNHHILSKTSTWTDPRMSS
- EC50 [4]: 146 nM
- Kd [4]: 133 nM

B4: E6 in pET21a with C-terminal histidine tag (designed binder)
chain: B3 chain
- ELISA binding signal relative to the negative control (E. coli Rosetta extract) [2]: 1.5 fold
